Biological target: HA–KLC2, O88448
Test: GST pull-down, immunoblot (IB: HA) quantified
Conditions: chain shown with the change; lysates of 293T cells co-expressing HA-KHC and HA-KLC2 (kinesin-1 tetramer); three independent experiments; parent: est. 1.0; read off a plot

HA–KLC2, O88448, sequence (O88448 whole entry): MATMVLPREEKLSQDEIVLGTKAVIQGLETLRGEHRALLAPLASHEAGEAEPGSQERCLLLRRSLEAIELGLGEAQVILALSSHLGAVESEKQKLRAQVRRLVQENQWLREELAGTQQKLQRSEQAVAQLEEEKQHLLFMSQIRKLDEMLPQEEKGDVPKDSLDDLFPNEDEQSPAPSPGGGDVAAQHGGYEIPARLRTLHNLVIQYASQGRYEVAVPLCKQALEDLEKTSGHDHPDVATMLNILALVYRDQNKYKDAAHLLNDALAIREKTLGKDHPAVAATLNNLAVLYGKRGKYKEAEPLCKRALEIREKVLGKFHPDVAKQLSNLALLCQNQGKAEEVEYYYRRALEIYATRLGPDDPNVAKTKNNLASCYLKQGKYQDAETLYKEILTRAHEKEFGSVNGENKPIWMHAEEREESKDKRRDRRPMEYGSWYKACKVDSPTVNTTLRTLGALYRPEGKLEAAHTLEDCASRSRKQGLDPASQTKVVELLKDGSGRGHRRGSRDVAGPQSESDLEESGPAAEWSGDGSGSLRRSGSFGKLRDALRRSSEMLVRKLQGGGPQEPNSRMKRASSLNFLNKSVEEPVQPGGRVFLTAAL

Row | Binder | ratio to parent
1 | GST–SKIP(1-310), Q8IWE5 D220A; F221A; G222A (protein) MEPGEVKDRILENISLSVKKLQSYFAACEDEIPAIRNHDKVLQRLCEHLDHALLYGLQDLSSGYWVLVVHFTRREAIKQIEVLQHVATNLGRSRAWLYLALNENSLESYLRLFQENLGLLHKYYVKNALVCSHDHLTLFLTLVSGLEFIRFELDLDAPYLDLAPYMPDYYKPQYLLDFEDRLPSSVHGSDSLSLNSFNSVTSTNLEWDDSAIAPSSEDYAAADVFPAVPSVPSTDWEDGDLTDTVSGPRSTASDLTSSKASTRSPTQRQNPFNEEPAETVSSSDTTPVHTTSQEKEEAQALDPPDACTEL | 0.47
2 | GST–SKIP(1-310), Q8IWE5 W236A; E237A (protein) MEPGEVKDRILENISLSVKKLQSYFAACEDEIPAIRNHDKVLQRLCEHLDHALLYGLQDLSSGYWVLVVHFTRREAIKQIEVLQHVATNLGRSRAWLYLALNENSLESYLRLFQENLGLLHKYYVKNALVCSHDHLTLFLTLVSGLEFIRFELDLDAPYLDLAPYMPDYYKPQYLLDFEDRLPSSVHGSDSLSLNSFNSVTSTNLEWDDSAIAPSSEDYDFGDVFPAVPSVPSTDAADGDLTDTVSGPRSTASDLTSSKASTRSPTQRQNPFNEEPAETVSSSDTTPVHTTSQEKEEAQALDPPDACTEL | 0.95
3 | GST–SKIP(1-310), Q8IWE5 E217A; D218A; Y219A (protein) MEPGEVKDRILENISLSVKKLQSYFAACEDEIPAIRNHDKVLQRLCEHLDHALLYGLQDLSSGYWVLVVHFTRREAIKQIEVLQHVATNLGRSRAWLYLALNENSLESYLRLFQENLGLLHKYYVKNALVCSHDHLTLFLTLVSGLEFIRFELDLDAPYLDLAPYMPDYYKPQYLLDFEDRLPSSVHGSDSLSLNSFNSVTSTNLEWDDSAIAPSSAAADFGDVFPAVPSVPSTDWEDGDLTDTVSGPRSTASDLTSSKASTRSPTQRQNPFNEEPAETVSSSDTTPVHTTSQEKEEAQALDPPDACTEL | 0.63
4 | GST–SKIP(1-310), Q8IWE5 D238A; G239A; D240A (protein) MEPGEVKDRILENISLSVKKLQSYFAACEDEIPAIRNHDKVLQRLCEHLDHALLYGLQDLSSGYWVLVVHFTRREAIKQIEVLQHVATNLGRSRAWLYLALNENSLESYLRLFQENLGLLHKYYVKNALVCSHDHLTLFLTLVSGLEFIRFELDLDAPYLDLAPYMPDYYKPQYLLDFEDRLPSSVHGSDSLSLNSFNSVTSTNLEWDDSAIAPSSEDYDFGDVFPAVPSVPSTDWEAAALTDTVSGPRSTASDLTSSKASTRSPTQRQNPFNEEPAETVSSSDTTPVHTTSQEKEEAQALDPPDACTEL | 0.89

From article PMC5450233
